Experimental findings from PMC5513672 (Chemical research in toxicology, 2017) are described below.

This series concerns the molecule itself. Kind of series: native gel or EMSA. On the technique in general: A gel shift assay detects complexes by their altered migration in electrophoresis.

B1: Human recombinant ALDH2 protein (mitochondrial aldehyde dehydrogenase), untreated (enzyme, UniProt P05091 18-517, looked up)
chain: SAAATQAVPAPNQQPEVFCNQIFINNEWHDAVSRKTFPTVNPSTGEVICQVAEGDKEDVDKAVKAARAAFQLGSPWRRMDASHRGRLLNRLADLIERDRTYLAALETLDNGKPYVISYLVDLDMVLKCLRYYAGWADKYHGKTIPIDGDFFSYTRHEPVGVCGQIIPWNFPLLMQAWKLGPALATGNVVVMKVAEQTPLTALYVANLIKEAGFPPGVVNIVPGFGPTAGAAIASHEDVDKVAFTGSTEIGRVIQVAAGSSNLKRVTLELGGKSPNIIMSDADMDWAVEQAHFALFFNQGQCCCAGSRTFVQEDIYDEFVERSVARAKSRVVGNPFDSKTEQGPQVDETQFKKILGYINTGKQEGAKLLCGGGIAADRGYFIQPTVFGDVQDGMTIAKEEIFGPVMQILKFKTIEEVVGRANNSTYGLAAAVFTKDLDKANYLSQALQAGTVWVNCYDVFGAQSPFGGYKMSGSGRELGEYGLQAYTEVKTVTVKVPQKNS
Consider B1, for which the binding result was “binds”.
